Source: the RNAGym collection of RNA variant scans (doi:10.1073/pnas.2313332121)
This sample holds only a part of the variants without activity.

B1: TPR 5TU (parent)
chain: GGAUCUUCUCGAUCUAACAAAAAAGACAAAUCUGCCACAAAGCUUGAGAGCAUCUUCGGAUGCAGAGGCGGCAGCCUUCGGUGGCGCGAUAGCGCCAACGUUCUCAACUAUGACACGCAAAACGCGUGCUCCGUUGAAUGGAGUUUAUCAUG

Variants of: B1
Experiment: polymerase ribozyme fitness, log enrichment relative to wild type (log ratio); higher = more active; in vitro selection for triplet polymerase activity
How it was run: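 PCR was used to build mutant libraries for each subunit of a heterodimeric triplet polymerase ribozyme, which were then transcribed. A single in vitro selection round, in triplicate, used a frozen incubation at −7 °C and recovered extended constructs by gel excision, streptavidin beads and RT-PCR. Fitness is the logarithm of genotype enrichment relative to wild-type enrichment, averaged over replicates with inverse-variance weights. The logarithm is base 2, and after Illumina sequencing only genotypes with ≥10 input reads and ≥1 read per output were kept.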

Variant | polymerase ribozyme fitness (log ratio)
C76G G80U U82A G86U U104C G141C | ≤ -4.2
A73G C75U U77C A89U G136A C149G | ≤ -4.2
G74A G92C C149A | ≤ -4.2
A73G G86A A150G | ≤ -4.2
G74A U90C G94A A98U | ≤ -4.2
C75U C95U | 0.131
C76A C95U C96A A97G C114U A137C | ≤ -4.2
C75A G80C C96G C99A G117A | ≤ -4.2
A73U C79G A107U A113C | ≤ -4.2
A73G G92C C96A | -2.51
C75U G83U | -3.08
C75U G83A | -0.0803
A73U C76U | -1.32
G74C C79G U82A C93U C108U | ≤ -4.2
G74C G80C G92U C103G A106U | ≤ -4.2
G74A C96G | -2.97
A73G G81A C85U | 0.246
A73G G88C A107U C129U U139C U148A | ≤ -4.2
A73U G141A | -2.24
C75U A89G | -0.933
C76U A119U | -0.561

Variant | polymerase ribozyme fitness (log ratio)
C76U A119C | -0.584
C76U C95U C96U G124U | -1.17
C75G C93A | -4.14
C76U U78C A137G | -2.11
C76A A119U | -0.979
C76G C85U U139C | ≤ -4.2
C76U G86C | -0.716
U77A C96G G141U | ≤ -4.2
A73G C125U | -0.349
C76A A142C | -2.3
A73G A120G | 0.0734
C75U G83C A138U A142G | ≤ -4.2
C76G C87A U144C G152A | ≤ -4.2
A73G U130C | 0.842
C76A A97U | -1.06
C76U U101G G124A | -0.411
A73U G83U G84U A97C G100U C105A | ≤ -4.2
C75G G141C | -4.12
C75G C93A C108G C132A G140A G143A | -4.12
C76G G83U U90A G128U U135G | ≤ -4.2
C76U A147U | 0.639

Variant | polymerase ribozyme fitness (log ratio)
C75G G92A C105G C114G U146C | ≤ -4.2
C76U C85G A121U U148C | -2.83
C75U C87U | 0.0996
C76A C96A A122C C123A | -1.55
C76A C87G | -4.07
C76A C85A C95A A120G | -2.33
C75A G86A U104G A106G | ≤ -4.2
C75G C87U | -3.2
C75U G92A | -2.99
A73G C149A | ≤ -4.2
C76A A91G A120G | -3.67
A73G G81A G83A C96A A119U G124C | ≤ -4.2
G74A A91C A147U U148C | ≤ -4.2
A73G C75U C99A U101G A142G | ≤ -4.2
G74A G86C G100C C103G C105A U151A | ≤ -4.2
C76G C93A C96A G136C | ≤ -4.2
A73C U127A U144G | ≤ -4.2
G74C C99U | ≤ -4.2
G74C U130A | ≤ -4.2
A73G A106C G141U | -1.34
C76U U104G A106U G128U U151G | ≤ -4.2

Variant | polymerase ribozyme fitness (log ratio)
A73U U148C G152C | ≤ -4.2
C75U G83A A98C U134A U135A | -3.58
A73G G94U A106G | -0.312
A73G C87G G88C G124C U127G G143C U144A | ≤ -4.2
C75G C85A C103U A107G A122C | ≤ -4.2
A73U U144C | -1.49
A73U G80A U134C | -1.91
C76U U77G A147G | ≤ -4.2
C76A G92C A98U A142U | -2.32
C76U C103A G141C | -4.16
A73G G140A | -2.98
C75U G80A C85A U146C | -3.11
A73C G92U C116G U144C | ≤ -4.2
C75A A137C A150U | ≤ -4.2
A73G G83C U145G | -2.01
C75G G81A A122G | ≤ -4.2
C76A A137U | -3.9
C75G G88A A98U C103U | ≤ -4.2
C76A U82C U90C G94C C116U G143A | ≤ -4.2
C76A C85U U144C | -0.235
G74A G84C C95U A137C | ≤ -4.2
